This is an account of results in US20170204140A1, “ANTAGONISTIC PEPTIDES” (Deakin University, priority 2014, published 2017).

Ends that are not written are not given here.

For one experiment, the system named is CHO-APP cells. Kind of experiment: Aβ secretion from CHO-APP cells, sandwich ELISA. Format: cell-based, Chinese hamster. To be noted: 5 hrs treatment; 1 nM to 1 μM. The method, then: Cells were treated for 5 hrs with compound concentrations ranging from 1 nM to 1 μM. Aβ secreted in the cell media was quantified using a sandwich ELISA. Data are calculated relative to Aβ secreted from control cells treated with DMSO (vehicle) alone.
Cells are seeded in 12-well plates and treated for 6-24 hrs with peptide or vehicle. After treatment, the cells are examined under a light microscope to evaluate toxicity. Culture media is collected, centrifuged and stored at −20° C. for Aβ ELISA and for sAPPβ analysis. Cells are harvested in PBS and cell pellets collected by centrifugation and frozen at −80° C. until use. Pellets are homogenized in RIPA buffer (0.1% SDS, 0.5% sodium deoxycholate, 1% Triton X-100, 150 mM NaCl in 50 mM Tris-HCl, pH 7.4) to assay for BACE1 enzymatic activity. The data is normalised to protein concentration determined by the BCA.
0.5 μg of mouse monoclonal antibody WO2 (Aβ1-16) is coated in 384-well plates. After blocking with hydrolysed casein and washing with PBS containing 0.05% Tween 20 (PBS-T), biotinylated IE8 antibody (Aβ18-22) (20 ng dilution in 10 μL blocking buffer) is added followed by culture media samples (50 μL/well). A standard curve of Aβ peptide (0.03-3 ng/well) is run in parallel. […] The plates are read in a Wallac Victor 2 Multicounter instrument and data calculated relative to the Aβ peptide standard curve.

The target in another experiment is T1, endogenous BACE1 (Homo sapiens, UniProt P56817).
T1 construct: endogenous in cells; host or cells: M17 human neuroblastoma cells (lysate)
Kind of experiment: BACE1 enzyme activity assay on M17 human neuroblastoma cell lysate. Format: biochemical. Conditions: 200 nM peptide. The method, then:
The M17 cell lysate was subjected to BACE1 enzyme activity assay and was read on a fluorometer in duplicate with one experimental group of a positive control, without the peptide inhibitor (0 nM), and an experimental group, with an added 200 nM concentration of the peptide inhibitor. […] The mean fluorescent units are a representation of the cleaved product of APP by BACE1 (P<0.0 5). This indicates the production of BACE1 in cultured human neuronal cells and the usefulness of this cell line.
The M17 cell lysate was subjected to BACE1 enzyme activity assay and was read on a fluorometer in duplicate with one experimental group of a positive control, without the peptide inhibitor (0 nM), and an experimental group, with an added 200 nM concentration of the peptide inhibitor. […] The mean fluorescent units are a representation of the cleaved product of APP by BACE1 (P<0.0 5).
The CelLytic extraction kit (Sigma-Aldrich) is used to prepare total protein extracts from M17 cells, with protein concentrations determined by BCA protein assay (Thermo Scientific Pierce, NH, USA), following the manufacturer's instructions.
Cell lysates obtained above are subjected to BACE1 enzyme assays, as described above.

In a further experiment the target is T2, IL-4 binding to IL-4Rα (Homo sapiens, UniProt P24394).
T2 construct: purchased SBH Sciences (IL-4Rα); Sigma-Aldrich (IL-4)
T2 sequence (P24394 26-232 limits assumed): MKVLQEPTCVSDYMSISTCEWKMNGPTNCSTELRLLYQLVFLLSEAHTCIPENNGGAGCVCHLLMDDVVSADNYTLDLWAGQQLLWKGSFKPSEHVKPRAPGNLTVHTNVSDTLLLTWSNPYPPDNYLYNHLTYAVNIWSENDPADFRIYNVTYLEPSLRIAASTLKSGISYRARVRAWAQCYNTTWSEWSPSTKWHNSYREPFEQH
Kind of experiment: Inhibition ELISA of IL-4 binding to IL-4Rα. To be noted: pre-incubation of IL-4Rα with nM amounts of the peptide. The source says: (§1) After extensive washing, HRP will be colorimetrically detected with the substrate o-phenylenediamine (Sigma-Aldrich) and read at 492 nm, according to our established protocols.

Another experiment has as its target T3, IL-13 binding to IL-4Rα (Homo sapiens, UniProt P24394).
T3 construct: purchased SBH Sciences (IL-4Rα); Sigma-Aldrich (IL-13)
T3 sequence (P24394 26-232 limits assumed): T2 sequence (P24394 26-232 limits assumed)
Nature of the experiment: Inhibition ELISA of IL-13 binding to IL-4Rα. Conditions: pre-incubation of IL-4Rα with nM amounts of the peptide.
Source text: as §1
(An ELISA detects its analyte on a solid surface through an enzyme-linked reagent.)

Experiment [1] concerns JAK-STAT6 signaling in HEK-Blue cells. Kind of experiment: JAK-STAT6 signaling in HEK-Blue cells (SEAP reporter, QUANTI-Blue). In kind it is cell-based. The method, then:
Positive Control (PC) included cells treated with IL-4 cytokine alone. Control 1 (C1) included cells incubated with peptide antagonist only and Control 2 (C2) included cells without any treatment. The results represent the mean of 3 replicates within an experiment and the error bars show standard deviation. P<0.05* denotes significance of optical density (OD) readings compared to positive control (PC).
The percentage values represented here are a reflection of treatments used in FIG. 9 (75 μM, 150 μM and 225 μM). […] Positive control is denoted at 0%, which is used as a referral point for the standard value at which inhibition begins.
Activation of this pathway leads to SEAP secretion in the supernatant and is easily detected using QUANTI-Blue medium that changes colour to purple/blue in the presence of SEAP, following manufacturer's instructions. Cells are grown and maintained in DMEM medium with 10% FCS at 37° C. in a 5% CO2-humidified chamber, following the manufacturer's instructions and established cell culture techniques. […]
In FIG. 9, six treatment wells were used in total; 4 wells treated with peptide N1 and 2 wells without peptide as positive and negative controls (shown in results section). […] The subsequent results were read using an xMark microplate absorbance spectrophotometer (Bio-Rad) at a wavelength of 640 nm

A further experiment concerns the target BACE1 (Homo sapiens, UniProt P56817). Kind of experiment: BACE1 inhibition assay based on cleavage of fluorogenic APP substrate. Format: biochemical. To be noted: peptide 100 nM and 200 nM; versus 0 nM control. The method, then:
The peptide concentrations of 100 nM and 200 nM show a significant (*) difference to the upper limit when compared with the negative control. The mean fluorescent units are a representation of the cleaved product of APP by BACE1 (P<0.0 5).
A fluorescent BACE1 activity assay kit (Sigma-Aldrich, NSW, Australia), is used to not only show the cleavage of APP by BACE1, but also the inhibitors' ability to prevent cleavage of APP by BACE1. A measurement of fluorescence expresses the resulting cleaved APP product, which indirectly measures the activity of BACE1 in cleaving APP. Assays are conducted in triplicate with (1, 10, 100 and 1000 nM) or without the peptide inhibitors, as negative controls. Commercially available BACE1 inhibitors (STA-200 and Merck Compound IV) are used as references. Data derived from assays at various substrate concentrations are used to determine Ki values and the mode of inhibition (competitive/allosteric) using the Lineweaver-Burk method.

Sequence of BACE1 (P56817 46-501, species assumed): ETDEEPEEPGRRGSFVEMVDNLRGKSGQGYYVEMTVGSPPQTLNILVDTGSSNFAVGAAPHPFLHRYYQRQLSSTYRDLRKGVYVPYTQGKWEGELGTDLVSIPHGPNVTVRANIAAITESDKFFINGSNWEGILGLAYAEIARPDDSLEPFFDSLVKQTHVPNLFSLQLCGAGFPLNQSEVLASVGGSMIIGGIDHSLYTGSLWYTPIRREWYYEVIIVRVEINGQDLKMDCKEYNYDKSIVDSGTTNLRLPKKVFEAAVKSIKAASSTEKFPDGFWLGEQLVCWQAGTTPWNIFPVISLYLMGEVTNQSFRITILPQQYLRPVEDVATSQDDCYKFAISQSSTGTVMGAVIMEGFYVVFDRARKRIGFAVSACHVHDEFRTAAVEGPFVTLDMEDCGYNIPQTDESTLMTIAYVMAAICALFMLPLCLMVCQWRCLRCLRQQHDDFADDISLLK
T1 sequence (P56817 46-501): as the sequence (P56817 46-501, species assumed) above

Consider `C[C@@H](NC(=O)c1cc(C(=O)N[C@@H](Cc2ccccc2)[C@H](O)CNC2CC2)cc(N(C)S(C)(=O)=O)c1)c1ccccc1` [Compound IV], for which the “Aβ secreted in the cell media relative to DMSO control” value in the experiment on CHO-APP cells is “inhibits Aβ secretion in a dose dependent manner”.
Consider FHESWPTFLSPS [peptide antagonist], for which, in the experiment with endogenous BACE1, the “inhibition of endogenous BACE1 activity” value is recorded as “more than 50%”. The “reduction of IL-4 binding to IL-4Rα” value with IL-4 binding to IL-4Rα was found to be 25%. Further, the “reduction of IL-13 binding to IL-4Rα” value in the experiment with IL-13 binding to IL-4Rα was 50%. Further, in experiment [1] (225 μM peptide, IL-4 stimulated HEK-Blue cells, dose-dependent (75, 150, 225 μM)), the “inhibition of JAK-STAT6 signaling” value is recorded as “up to 59%”. For the same molecule, the “JAK-STAT6 signaling triggered by peptide alone” value in experiment [1] (peptide without IL-4) is “did not trigger a non-specific JAK-STAT6 signaling”. Moreover, in the experiment with BACE1, the “inhibition of BACE1 activity” value is “more than 40%”.
